Assay results published in FireProtDB (doi:10.1021/bi980431i).
Several values for one entry are separate records, joined by “and”; a condition that tells them apart may be missing. Equal values may be shown once.

B1: Lysozyme C, P61626 (parent)
chain: MKALIVLGLVLLSVTVQGKVFERCELARTLKRLGMDGYRGISLANWMCLAKWESGYNTRATNYNAGDRSTDYGIFQINSRYWCNDGKTPGAVNACHLSCSALLQDNIADAVACAKRVVRDPQGIRAWVAWRNRCQNRDVRQYVQGCGV

Variants of: B1
Details: Homo sapiens; pH 2.53; Thermal; DSC; glycine 0.05 M; reversible: yes; structure 1LZ1; whole UniProt chain shown

Row | Variant | Tm [°C] | heat capacity change of unfolding [kcal/mol/K] | unfolding enthalpy (calorimetric) [kcal/mol] | unfolding enthalpy (van 't Hoff) [kcal/mol]
1 | MKALIVLGLVLLSVTVQGKVFERCELARTLKRLGMDGYRGISLANWMCLAKWESGYNTRATNYNAGDRSTDYGIFQINSRYWCNDGKTPGAVNACHLSCSALLQDNIADAVACAKRVVRDPQGIRAWVAWRNRCQNRDVRQFVQGCGV [Y142F] | 60.8 | 1.48 | 108 | 112

Same assay, conditions: Homo sapiens; pH 2.68; Thermal; DSC; glycine 0.05 M; reversible: yes; structure 1LZ1; whole UniProt chain shown

Row | Variant | Tm [°C] | heat capacity change of unfolding [kcal/mol/K] | unfolding enthalpy (calorimetric) [kcal/mol] | unfolding enthalpy (van 't Hoff) [kcal/mol]
2 | MKALIVLGLVLLSVTVQGKVFERCELARTLKRLGMDGYRGISLANWMCLAKWESGYNTRATNYNAGDRSTDYGIFQINSRYWCNDGKTPGAVNACHLSCSALLQDNIADAVACAKRVVRDPQGIRAWVAWRNRCQNRDVRQFVQGCGV [Y142F] | 63.4 | 1.08 | 112 | 116

Same assay, conditions: Homo sapiens; pH 2.7; 64.9 °C; Thermal; DSC; glycine 0.05 M; reversible: yes; structure 1LZ1; whole UniProt chain shown

Row | Variant | ddG of mutation (higher = less stable) [kcal/mol] | heat capacity change of unfolding [kcal/mol/K]
3 | MKALIVLGLVLLSVTVQGKVFERCELARTLKRLGMDGYRGISLANWMCLAKWESGYNTRATNYNAGDRSTDYGIFQINSRYWCNDGKTPGAVNACHLSCSALLQDNIADAVACAKRVVRDPQGIRAWVAWRNRCQNRDVRQFVQGCGV [Y142F] | 0.36 | 1.46
4 | MKALIVLGLVLLSVTVQGKVFERCELARTLKRLGMDGYRGISLANWMCLAKWESGFNTRATNYNAGDRSTDYGIFQINSRYWCNDGKTPGAVNACHLSCSALLQDNIADAVACAKRVVRDPQGIRAWVAWRNRCQNRDVRQYVQGCGV [Y56F] | 0.19 | 1.29
5 | MKALIVLGLVLLSVTVQGKVFERCELARTLKRLGMDGFRGISLANWMCLAKWESGYNTRATNYNAGDRSTDYGIFQINSRYWCNDGKTPGAVNACHLSCSALLQDNIADAVACAKRVVRDPQGIRAWVAWRNRCQNRDVRQYVQGCGV [Y38F] | 0.5 | 1.35

Same assay, conditions: Homo sapiens; pH 2.7; Thermal; DSC; glycine 0.05 M; reversible: yes; structure 1LZ1; whole UniProt chain shown

Row | Variant | Tm | change of melting temperature, mutant - wild type (higher = more stable) [°C] | heat capacity change of unfolding | unfolding enthalpy (calorimetric) | unfolding enthalpy (van 't Hoff)
6 | MKALIVLGLVLLSVTVQGKVFERCELARTLKRLGMDGYRGISLANWMCLAKWESGYNTRATNYNAGDRSTDYGIFQINSRYWCNDGKTPGAVNACHLSCSALLQDNIADAVACAKRVVRDPQGIRAWVAWRNRCQNRDVRQFVQGCGV [Y142F] | 63.8 °C and 64 °C | -1.1 | 1.46 kcal/mol/K and 1.53 kcal/mol/K | 114 kcal/mol and 113 kcal/mol | 119 kcal/mol and 118 kcal/mol
7 | MKALIVLGLVLLSVTVQGKVFERCELARTLKRLGMDGYRGISLANWMCLAKWESGFNTRATNYNAGDRSTDYGIFQINSRYWCNDGKTPGAVNACHLSCSALLQDNIADAVACAKRVVRDPQGIRAWVAWRNRCQNRDVRQYVQGCGV [Y56F] | 64.3 °C | -0.6 | 1.29 kcal/mol/K | 114 kcal/mol | 117 kcal/mol
8 | MKALIVLGLVLLSVTVQGKVFERCELARTLKRLGMDGFRGISLANWMCLAKWESGYNTRATNYNAGDRSTDYGIFQINSRYWCNDGKTPGAVNACHLSCSALLQDNIADAVACAKRVVRDPQGIRAWVAWRNRCQNRDVRQYVQGCGV [Y38F] | 63.4 °C | -1.5 | 1.35 kcal/mol/K | 112 kcal/mol | 120 kcal/mol

Same assay, conditions: Homo sapiens; pH 3.06; Thermal; DSC; glycine 0.05 M; reversible: yes; structure 1LZ1; whole UniProt chain shown

Row | Variant | Tm [°C] | heat capacity change of unfolding [kcal/mol/K] | unfolding enthalpy (calorimetric) [kcal/mol] | unfolding enthalpy (van 't Hoff) [kcal/mol]
9 | MKALIVLGLVLLSVTVQGKVFERCELARTLKRLGMDGYRGISLANWMCLAKWESGYNTRATNYNAGDRSTDYGIFQINSRYWCNDGKTPGAVNACHLSCSALLQDNIADAVACAKRVVRDPQGIRAWVAWRNRCQNRDVRQFVQGCGV [Y142F] | 69.7 | 1.82 | 121 | 125

Same assay, conditions: Homo sapiens; pH 2.71; Thermal; DSC; glycine 0.05 M; reversible: yes; structure 1LZ1; whole UniProt chain shown

Row | Variant | Tm [°C] | heat capacity change of unfolding [kcal/mol/K] | unfolding enthalpy (calorimetric) [kcal/mol] | unfolding enthalpy (van 't Hoff) [kcal/mol]
10 | MKALIVLGLVLLSVTVQGKVFERCELARTLKRLGMDGYRGISLANWMCLAKWESGFNTRATNYNAGDRSTDYGIFQINSRYWCNDGKTPGAVNACHLSCSALLQDNIADAVACAKRVVRDPQGIRAWVAWRNRCQNRDVRQYVQGCGV [Y56F] | 64.6 | 1.03 | 113 | 117

Same assay, conditions: Homo sapiens; pH 2.92; Thermal; DSC; glycine 0.05 M; reversible: yes; structure 1LZ1; whole UniProt chain shown

Row | Variant | Tm [°C] | heat capacity change of unfolding [kcal/mol/K] | unfolding enthalpy (calorimetric) [kcal/mol] | unfolding enthalpy (van 't Hoff) [kcal/mol]
11 | MKALIVLGLVLLSVTVQGKVFERCELARTLKRLGMDGYRGISLANWMCLAKWESGFNTRATNYNAGDRSTDYGIFQINSRYWCNDGKTPGAVNACHLSCSALLQDNIADAVACAKRVVRDPQGIRAWVAWRNRCQNRDVRQYVQGCGV [Y56F] | 67.2 | 1.46 | 117 | 121

Same assay, conditions: Homo sapiens; pH 3.1; Thermal; DSC; glycine 0.05 M; reversible: yes; structure 1LZ1; whole UniProt chain shown

Row | Variant | Tm [°C] | heat capacity change of unfolding [kcal/mol/K] | unfolding enthalpy (calorimetric) [kcal/mol] | unfolding enthalpy (van 't Hoff) [kcal/mol]
12 | MKALIVLGLVLLSVTVQGKVFERCELARTLKRLGMDGYRGISLANWMCLAKWESGFNTRATNYNAGDRSTDYGIFQINSRYWCNDGKTPGAVNACHLSCSALLQDNIADAVACAKRVVRDPQGIRAWVAWRNRCQNRDVRQYVQGCGV [Y56F] | 70.3 | 0.96 | 121 | 124

Same assay, conditions: Homo sapiens; pH 3.25; Thermal; DSC; glycine 0.05 M; reversible: Yes; structure 1LZ1; whole UniProt chain shown

Row | Variant | Tm [°C] | heat capacity change of unfolding [kcal/mol/K] | unfolding enthalpy (calorimetric) [kcal/mol] | unfolding enthalpy (van 't Hoff) [kcal/mol]
13 | MKALIVLGLVLLSVTVQGKVFERCELARTLKRLGMDGYRGISLANWMCLAKWESGFNTRATNYNAGDRSTDYGIFQINSRYWCNDGKTPGAVNACHLSCSALLQDNIADAVACAKRVVRDPQGIRAWVAWRNRCQNRDVRQYVQGCGV [Y56F] | 72.4 | 1.12 | 123 | 126

Same assay, conditions: Homo sapiens; pH 2.58; Thermal; DSC; glycine 0.05 M; reversible: yes; structure 1LZ1; whole UniProt chain shown

Row | Variant | Tm [°C] | heat capacity change of unfolding [kcal/mol/K] | unfolding enthalpy (calorimetric) [kcal/mol] | unfolding enthalpy (van 't Hoff) [kcal/mol]
14 | MKALIVLGLVLLSVTVQGKVFERCELARTLKRLGMDGFRGISLANWMCLAKWESGYNTRATNYNAGDRSTDYGIFQINSRYWCNDGKTPGAVNACHLSCSALLQDNIADAVACAKRVVRDPQGIRAWVAWRNRCQNRDVRQYVQGCGV [Y38F] | 61.1 | 1.67 | 106 | 114

Same assay, conditions: Homo sapiens; pH 2.89; Thermal; DSC; glycine 0.05 M; reversible: yes; structure 1LZ1; whole UniProt chain shown

Row | Variant | Tm [°C] | heat capacity change of unfolding [kcal/mol/K] | unfolding enthalpy (calorimetric) [kcal/mol] | unfolding enthalpy (van 't Hoff) [kcal/mol]
15 | MKALIVLGLVLLSVTVQGKVFERCELARTLKRLGMDGFRGISLANWMCLAKWESGYNTRATNYNAGDRSTDYGIFQINSRYWCNDGKTPGAVNACHLSCSALLQDNIADAVACAKRVVRDPQGIRAWVAWRNRCQNRDVRQYVQGCGV [Y38F] | 66.8 | 1.7 | 115 | 123

Same assay, conditions: Homo sapiens; pH 3.18; Thermal; DSC; glycine 0.05 M; reversible: yes; structure 1LZ1; whole UniProt chain shown

Row | Variant | Tm [°C] | heat capacity change of unfolding [kcal/mol/K] | unfolding enthalpy (calorimetric) [kcal/mol] | unfolding enthalpy (van 't Hoff) [kcal/mol]
16 | MKALIVLGLVLLSVTVQGKVFERCELARTLKRLGMDGFRGISLANWMCLAKWESGYNTRATNYNAGDRSTDYGIFQINSRYWCNDGKTPGAVNACHLSCSALLQDNIADAVACAKRVVRDPQGIRAWVAWRNRCQNRDVRQYVQGCGV [Y38F] | 72 | 0.6 | 122 | 129
